Laboratory results published in paper PMC4330346, “Function of the N-terminal segment of the RecA-dependent nuclease Ref” (Nucleic Acids Research, 2015).
Substitutions are numbered along the chain they refer to.

Key:
[1] = target: ϕW39 R11C Ref (bacteriophage ϕW39); assay: non-reducing SDS-PAGE; Ref dialysed free of DTT; 6.5 μg Ref, 50 mM sodium phosphate pH 7.5, 75 mM sodium chloride, no DTT; non-reducing cracking buffer, 4–15% gradient SDS-PAGE; the dimer is taken as disulfide-linked; 10 mM DTT substantially reduced the dimers of P1 WT Ref and ϕW39 R11C
[2] = target: ϕW39 R11C Ref (bacteriophage ϕW39); assay: cross-linking; non-specific cross-linker disuccinimidyl glutarate (DSG) to trap the oligomeric states of Ref (Supplementary Figure S2)
[3] = target: the molecule itself; assay: AUC; preliminary ultracentrifugation, unpublished data; conditions not given
P1 deltaN76 Ref = target: T1, P1 deltaN76 Ref (bacteriophage P1, UniProt P35926 77-186, del1-76); assay: fluorescence polarization; 25 mM Tris-acetate pH 8.5, 3 mM potassium glutamate, 15 mM magnesium acetate, 5% w/v glycerol, 2 nM DNA, Ref 0.5-10000 nM, 15 min at room temperature, read at 25 C; one-site fit with Hill coefficient; details: protein: recombinant, tags: none (native form)
T1 sequence: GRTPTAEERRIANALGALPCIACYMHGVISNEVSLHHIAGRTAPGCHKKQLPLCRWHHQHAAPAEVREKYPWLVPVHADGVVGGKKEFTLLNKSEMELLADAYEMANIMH

phiW39 deltaN74 Ref = target: T2, phiW39 deltaN74 Ref (bacteriophage phiW39, R86T;A93T;N107E;A115S); assay: as above; details: protein: recombinant, tags: none (native form)
T2 sequence: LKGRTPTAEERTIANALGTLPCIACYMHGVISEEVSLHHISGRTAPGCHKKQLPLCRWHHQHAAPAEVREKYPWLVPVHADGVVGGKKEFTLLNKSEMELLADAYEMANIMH

phiW39 WT Ref = target: T3, phiW39 WT Ref (bacteriophage phiW39, I8L;C11R;K13E;V34A;T46S;L47I;R86T;A93T;N107E;A115S); assay: fluorescence polarization; apparent Kd; 25 mM Tris-acetate pH 8.5, 3 mM potassium glutamate, 15 mM magnesium acetate, 5% w/v glycerol, 2 nM DNA, Ref 0.5-10000 nM, 15 min at room temperature, read at 25 C; one-site fit with Hill coefficient; details: protein: recombinant, tags: none (native form)
T3 sequence: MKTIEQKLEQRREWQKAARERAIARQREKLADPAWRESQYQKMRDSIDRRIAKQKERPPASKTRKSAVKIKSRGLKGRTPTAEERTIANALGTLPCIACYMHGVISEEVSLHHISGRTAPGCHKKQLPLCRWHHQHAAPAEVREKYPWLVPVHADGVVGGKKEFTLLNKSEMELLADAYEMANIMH

phiW39 deltaN59 Ref = target: T4, phiW39 deltaN59 Ref (bacteriophage phiW39, R86T;A93T;N107E;A115S); assay: fluorescence polarization; Kd value only in Figure 2C; 25 mM Tris-acetate pH 8.5, 3 mM potassium glutamate, 15 mM magnesium acetate, 5% w/v glycerol, 2 nM DNA, Ref 0.5-10000 nM, 15 min at room temperature, read at 25 C; one-site fit with Hill coefficient; details: protein: recombinant; tags: none (native form); label: 5' 6-FAM; single strand
T4 sequence: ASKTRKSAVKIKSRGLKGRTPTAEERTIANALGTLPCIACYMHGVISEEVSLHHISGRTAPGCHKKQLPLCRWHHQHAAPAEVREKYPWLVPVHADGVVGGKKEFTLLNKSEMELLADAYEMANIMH

[4] = label: 5' 6-FAM on strand 1, blunt

Molecule: ϕW39 R11C Ref (enzyme)
- stoichiometry N [1]: 2
- stoichiometry N [2]: 2

B1: bacteriophage P1 Ref (recombination enhancement function) protein, wild type (enzyme, UniProt P35926 1-186, looked up)
chain: T3 sequence with L8I, R11C, E13K, A34V, S46T, I47L, T86R, T93A, E107N, S115A
notes: has Cys11; Purified in native form (no tag)
- stoichiometry N [3]: 2

B2: AJM25 71mer ssDNA (ssDNA)
DNA: CAGAAGTAAGTTGGCCGCAGTGTTATCACTCATGGTTATGGCAGCACTGCATAATTCTCTTACTGTCATGC
- binding result (P1 deltaN76 Ref; label: 5' 6-FAM, single strand): no binding
- binding result (phiW39 deltaN74 Ref; label: 5' 6-FAM, single strand): no binding
- Kd (phiW39 WT Ref; label: 5' 6-FAM, single strand): 28 ± 2 nM
- binding signal (phiW39 deltaN59 Ref): ~40 fold reduction in affinity

B3: AJM25/AJG52 71 bp dsDNA (dsDNA)
DNA 1: B2 DNA
DNA 2: GCATGACAGTAAGAGAATTATGCAGTGCTGCCATAACCATGAGTGATAACACTGCGGCCAACTTACTTCTG
- binding result (P1 deltaN76 Ref; [4]): no binding
- binding result (phiW39 deltaN74 Ref; [4]): no binding
- Kd (phiW39 WT Ref; [4]): 24 ± 1 nM
